For this assay, the target named is ECM (extracellular matrix). As to the kind of experiment: ECL assay on ECM (Matrigel)-coated plate, MRA reference of the same plate or date.

“And” between values parts separate entries of the source, which are not always exact repeats. Equal entries are not always repeated.

For MRA (antibody), the ECL reaction (MRA) was 448 and 564.

The values are drawn from patent US20240270846A1.
